Consider one substance from patent US6428997B1, “Aminopeptidase derived from Bacillus licheniformis and process for preparation of natural type proteins” (LG Chemical Ltd., priority 1997, dated 2002).

Series [1] relates to CC(C)C[C@H](N)C(=O)Nc1ccc([N+](=O)[O-])cc1. Nature of the series: purified protein, by the assay type. The note with it: other: Tris-Cl pH 8.0, 37° C., measured by same experiment, Lineweaver-Burk plot.
Procedure: (§1) Precisely, 1 U of enzyme activity defines the enzyme quantity changing 1 absorbance at 405 nm which is measured by the process adding aminopeptidase in 1 ml solution of 100M Tris-Cl (pH 8.0) and 2 mM leucine-p-nitroanilide (Sigma, USA), incubating at 37° C. for 1 min, then adding 100 μl of 70% acetic acid to stop the reaction. At that time leucine-p-nitroanilide was dissolved in dimethylsulfoxide (DMSO) to make 100 mM solution.
(§2) In order to compare substrate specificity of aminopeptidase of this invention, 2 kinds of substrate were used. In detail, one was synthetic substrates of p-nitroanilide derivative and purchased from Sigma, USA and the other was oligopeptide such as methionyl oligopeptide of SEQ. ID. NO: 1 which have amino acid sequence similar to N-terminus of methionyl HGH and leucyl oligopeptide of SEQ. ID. NO: 2.
(§3) Enzyme reaction of aminopeptidase was performed by the process described in Reference Examples. At that time p-nitroanilide derivative was used as synthetic substrate. Leucine p-nitroanilide was used as substrate to perform the reaction in concentration of 0.03125, 0.0625, 0.125, 0.25, 0.5, 1 mM and methionine p-nitroanilide in 0.125, 0.25, 0.5, 1 mM and aminopeptidase in 0.5 U respectively. Above reactions using leucine-p-nitroanilide proceeded for 2 min and methionine-p-nitroanilide for 40 min. Then 70% acetic acid was added to stop the reactions and absorbance at 405 nm was measured. The product concentration was measured by adopting absorbance constant ε405=9450M^−1 cm^−1.
(§4) In reaction condition mentioned above, initial velocity of enzyme reaction was measured with varying the substrate concentration. Lineweaver-Burk plot was used to determine Km value and Maximum reaction velocity of aminopeptidase from Bacillus licheniformis. In addition kcat and kcat/Km was determined by using Km value and maximum reaction velocity described above.
Series [2] has as its system CSCC[C@H](N)C(=O)Nc1ccc([N+](=O)[O-])cc1. Nature of the series: purified protein, by the assay type. The following applies: other: Tris-Cl pH 8.0, 37° C., measured by same experiment, Lineweaver-Burk plot.
Procedure: as §1, §2, §3, §4

By Km is commonly meant the concentration of substrate that gives half-maximal velocity. What is called kcat is the number of substrate molecules converted per active site and unit of time at saturation. One may read the kcat/Km as the second-order rate constant that governs catalysis at low substrate concentration. In the case of “Aeromonas proteolytica (Vibrio proteolytica) aminopeptidase (Vibrio proteolyticus)”, in series [1], the Km came to 240 µM, the kcat stood at 48 s⁻¹ and the kcat/Km amounted to 200000 M⁻¹ s⁻¹. In addition, in series [2], the Km came to 942 µM, the kcat was found to be 2.64 s⁻¹ and the kcat/Km was found to be 2800 M⁻¹ s⁻¹.
